± gives the half width of the 95% confidence interval.

Series [1] in a line: folding stability dG unfold from trypsin proteolysis; higher = more stable. An outline of the steps: (§1)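 Unfolding free energy was derived, per protease or combined, by relating Bayesian-fitted K50 values from sequencing counts to a sequence-predicted unfolded-state K50 and a shared folded-state K50. The underlying digests exposed cysteine-free mini-proteins under 80 residues, in a PA-tagged cDNA display construct, to trypsin and chymotrypsin at 11 threefold-diluted concentrations and to a no-protease condition. A filter kept only designs with AlphaFold2 dimer inter-PAE above 15.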

The nature of series [2]: folding stability dG unfold from chymotrypsin proteolysis; higher = more stable. An outline of the steps:
as §1

The nature of series [3]: folding stability dG unfold (combined trypsin and chymotrypsin); higher = more stable. An outline of the steps:
as §1

Regarding “SMMYLVNLRVEVYKDGKLVEEKEIAIAAPVEEALKIAEAIKESHPDAEVKVEIEVYEIPEDDPEFKEAFASA [r9_782_TrMRF]”, the “folding stability dG unfold” value in series [1] turned out to be 2.25 ± 0.082 kcal/mol; in series [2], 2.87 ± 0.033 kcal/mol; in series [3], 2.68 ± 0.089 kcal/mol.
The like results for “SMNIISIDIEPYRTGGEPWIYIPIQVPDENMPPSELEEIVEEIFEKLGLPINVKVHRDPNSGTIWIMIRLSA [r9_717_TrROS]” were, in that order, 2.72 ± 0.15 kcal/mol, 2.79 ± 0.13 kcal/mol and 2.75 ± 0.27 kcal/mol.
The like results for “SMNITVTYDPETDTVTIEIDDEEIDPETLRELLDAIPPNVKRVIIHVDHPETARTVEELAKETGLPVEIASA [r9_919_TrMRF]” were, in that order, 3.96 ± 0.077 kcal/mol, 3.2 ± 0.13 kcal/mol and 3.97 ± 0.12 kcal/mol.
The like results for “SMPKIEVKIEYDEETGEITVEIRVPETEEEALEALRKLAEEAGLEVEVEEVEIEEVDGELVIRVKVRIKPSA [r9_164_TrROS_Hall]” were, in that order, 3.57 ± 0.21 kcal/mol, 2.44 ± 0.16 kcal/mol and 3.08 ± 0.28 kcal/mol.
For the sequence “SMPLTPAEVAEARARAAREAAEAAAGVPVTVRVTLSTPDRELTVTLPATESLAAVMKAHPDVTVEVEVEASA [r9_513_JUSTAS]”, the “folding stability dG unfold” value in series [1] is 0.459 ± 0.043 kcal/mol; in series [2], 0.0452 ± 0.11 kcal/mol; in series [3], 0.284 ± 0.059 kcal/mol.
The like results for “SMPLTPEEVEEVVEAVAKELEEETGEEVKAEVFYDPETGRFYAVIELPDGRRVRIEIDPETGEVRVEVEASA [r9_9_TrMRF]” were, in that order, 3.8 ± 0.13 kcal/mol, 4.17 ± 0.15 kcal/mol and 4.02 ± 0.1 kcal/mol.
The like results for “SMPPDEKLIFVTRFKVKPDNPEDIEKALAAARETVRALLEELGLPEVKEVRVLRVEVHPDGYVTVVVEVGSA [r9_754_TrMRF]” were, in that order, 4.05 ± 0.11 kcal/mol, 4.73 ± 0.1 kcal/mol and 4.49 ± 0.08 kcal/mol.
The corresponding values for “SMPRLVATPRPDGSVLVLLEAPPERPEEIAEEIRERLGVPLRVVRIEPVPERVGDRPRLRYRVLIEVDVRSA [r9_431_TrMRF]” are 0.96 ± 0.077 kcal/mol, 0.923 ± 0.12 kcal/mol and 0.976 ± 0.095 kcal/mol.
Turning to “SMPVTITITLHKDPNSDVIPVRLEMTDSAGNPIGEREIDYTTTEEEARERAVALAEEIAAATGYTIEFGESA [r9_31_JUSTAS]”, the entries for the “folding stability dG unfold” value in series [1], in series [2] and in series [3] were 1.27 ± 0.069 kcal/mol, 0.266 ± 0.22 kcal/mol and 0.8 ± 0.11 kcal/mol, respectively.
The like results for “SMPVTITRDFDIPLATLSVEEVKAAIEEALKAEGLNVVEPKLDEKLVKELEEAPPSSTLPVKVTVLVEPASA [r9_1163_JUSTAS]” were, in that order, 0.35 ± 0.074 kcal/mol, 0.715 ± 0.049 kcal/mol and 0.62 ± 0.15 kcal/mol.
The corresponding values for “SMREIPPEDLKKAANAYLNGDKEKVEQLFKDAGFKKVVLEEVEGDGEVLFVALVEHPDGPTVLTVSSSDFSA [r9_783_TrMRF]” are 0.7 ± 0.064 kcal/mol, 1.33 ± 0.1 kcal/mol and 1.04 ± 0.25 kcal/mol.
The corresponding values for “SMRIHDSNGQSYTIMIRTPDPNVTPEKIVKAIDEAGYKVTEIQRPPEKGHVHINIRVRDRERAIEAIKELSA [r9_1154_TrROS]” are 0.231 ± 0.12 kcal/mol, -0.253 ± 0.18 kcal/mol and 0.0402 ± 0.12 kcal/mol.
In the case of “SMRKVKRKVTLEITIKVPESVLKPIPDADYYTYPFDDKLVKPDAVIPRTVTITGPYTEEEVEKLVKEILSSA [r9_165_JUSTAS]”, the “folding stability dG unfold” value in series [1] was 0.749 ± 0.2 kcal/mol; in series [2] it was -0.613 ± 0.48 kcal/mol; in series [3], 0.249 ± 0.25 kcal/mol.
The like results for “SMRVTIMIPVPPGLKNLKLEFKLPYPDGREVDVDIQVDPNYITITVEMNNPGQMDWVQERFQEEIEKLLGSA [r9_790_TrROS]” were, in that order, 3.24 ± 0.1 kcal/mol, 4.09 ± 0.15 kcal/mol and 3.64 ± 0.16 kcal/mol.
The corresponding values for “SMSMEEAMEWAEENPDRPVIFINPEDWYIMIYNPKKGKMEMRPITSPEEALEELDDENIDRIYIVPADEISA [r9_775_TrROS]” are 1.21 ± 0.064 kcal/mol, 2.31 ± 0.061 kcal/mol and 1.96 ± 0.088 kcal/mol.
With “SMSPEALKKANEFAEYIAEHFKNWNIEIDVEVEWDPDGEITIRAKIEMRPPPPPPPKPKRDPNGKWKWEGSA [r9_82_TrROS]”, the entries for the “folding stability dG unfold” value in series [1], in series [2] and in series [3] were 0.943 ± 0.079 kcal/mol, 2.3 ± 0.23 kcal/mol and 1.84 ± 0.51 kcal/mol, respectively.
The corresponding values for “SMSREELREYARAHPDRPLALILPGKKTLLLFDPATGAEREEDITSVEEAKERLAAQPVAVVEVVSAELLSA [r9_775_JUSTAS]” are -0.439 ± 0.37 kcal/mol, 0.499 ± 0.085 kcal/mol and 0.294 ± 0.11 kcal/mol.
The like results for “SMSTNLVVKEKLIPPGVLVVTYKKDGKPVKVETKVVVIPPQLVVEEVLYPGGKLALKTYDPLTGTPSFELSA [r9_343_JUSTAS]” were, in that order, -0.122 ± 0.14 kcal/mol, 0.644 ± 0.28 kcal/mol and 0.337 ± 0.29 kcal/mol.
The corresponding values for “SMSVEISVPPTNPGASPEEIAAALAAKGRPVEVVSVSEDPSTGTRTVTIAVRAPDGTLEETVVVNAPVGVSA [r9_879_JUSTAS]” are 0.495 ± 0.057 kcal/mol, -0.772 ± 0.33 kcal/mol and 0.0853 ± 0.12 kcal/mol.
With “SMSYTVTVEYPDTGKTTTTPIPPDALEVSVSLSGPSTIRITITTDVNGATTTTTSTVTLPPPALPPSTLLSA [r9_1067_JUSTAS]”, the results for the “folding stability dG unfold” value in series [1], in series [2] and in series [3] were 1.11 ± 0.097 kcal/mol, 0.927 ± 0.28 kcal/mol and 1.06 ± 0.22 kcal/mol, respectively.
“SMTAEEIAERLARALEEAGIRRVEVEVTVEYDPETDEVTVTVTIRVEPAPEAPPEEEEERREREEREAEESA [r9_440_TrROS_Hall]”: the “folding stability dG unfold” value came out at 2.26 ± 0.057 kcal/mol in series [1], 2.43 ± 0.09 kcal/mol in series [2] and 2.31 ± 0.11 kcal/mol in series [3].
The like results for “SMTAEVTLTIVYPDGTSTTLPMTFPADDPEALRAAIRAAVAAAGYTPTALQMTFTAQPDGSVRVDVTVTVAS [r1_281_JUSTAS]” were, in that order, 4.1 ± 0.059 kcal/mol, 5.7 ± 0.066 kcal/mol and 5.61 ± 0.077 kcal/mol.
The like results for “SMTFVLPYPKEGKTITVTYPDLESAVSSSGVATFQDPALLAQVIAALPSSVIVKEIKKNPDGTYTLTVAASA [r9_997_JUSTAS]” were, in that order, 0.773 ± 0.043 kcal/mol, -0.066 ± 0.24 kcal/mol and 0.483 ± 0.1 kcal/mol.
The like results for “SMTIEIEVDGKTVTVEIDPKTGKIKKVVVKDKETGEWKELSDEEIEKLLKELEDELREKREKLEKEGKEPSA [r9_368_TrROS_Hall]” were, in that order, 2.32 ± 0.24 kcal/mol, 2.5 ± 0.18 kcal/mol and 2.53 ± 0.25 kcal/mol.
Consider “SMTIERHPDKLTVRVPAAFSTVPEVVRFLKELGFELPPGVKDVRVEDVEPGARVVRVTVHFDDPEALERLSA [r9_820_TrMRF]”, for which the “folding stability dG unfold” value was found to be 1.97 ± 0.024 kcal/mol in series [1], 1.58 ± 0.049 kcal/mol in series [2] and 1.81 ± 0.031 kcal/mol in series [3].
The corresponding values for “SMTITIERPVPPELTDRPLSLELPLPNGSTVSVKVETSPTTATVTITTNDPSLEAEVKARVEELLARLLASA [r9_790_JUSTAS]” are 2.56 ± 0.094 kcal/mol, 2.058 ± 0.02 kcal/mol and 2.27 ± 0.1 kcal/mol.
The like results for “SMTLEEAKEIAEKNPDIPVALIFPGKKLIYIYHPKSGKWEVKPVTSIEEAIEALEKEDIDAIFIVPAELDSA [r9_775_TrMRF]” were, in that order, 4.54 ± 0.44 kcal/mol, 3.93 ± 0.087 kcal/mol and 4.06 ± 0.16 kcal/mol.
The corresponding values for “SMTLITLTDPVTNVPVEKVEVRKLEDGTYEATVTTKEPSKTTTKTYPLPPDEKITDVLKSLGLKEAEINLSA [r9_492_JUSTAS]” are 0.255 ± 0.036 kcal/mol, 0.538 ± 0.093 kcal/mol and 0.445 ± 0.17 kcal/mol.
As to “SMTLPANAKAKVTVLVLFYDPETGEATLVKVDYTATFKPDDKGNLVVEVEPSKIEFIGPISLEEAKKIAGSA [r9_423_TrMRF]”, the “folding stability dG unfold” value in series [1] came to 2.57 ± 0.15 kcal/mol; in series [2], 2.11 ± 0.058 kcal/mol; in series [3], 2.55 ± 0.21 kcal/mol.
For the sequence “SMTLTIDLDPSVPYLVRIHFVNEDGEPYEADALTTRTPDGTAFVDIALPDDSIPPGADIKILSVEVIPLDSA [r9_359_TrMRF]”, the “folding stability dG unfold” value is 1.63 ± 0.019 kcal/mol in series [1], 2.1 ± 0.054 kcal/mol in series [2] and 1.96 ± 0.051 kcal/mol in series [3].
The like results for “SMTPEEARALAEAIAAERAAAGYATEMELTVTPVNGVPVATFRFRFTDAAGRATEFTVTVAPDGTVTFTPSA [r9_1027_JUSTAS]” were, in that order, 3.34 ± 0.089 kcal/mol, 3.814 ± 0.031 kcal/mol and 3.64 ± 0.08 kcal/mol.
For “SMTTRESTIDASIPGYTVSKVSVTTLPGGERKITITLPSGKVLVLSTPADPALVPLTVTSEFSPEEVAAKSA [r9_1075_JUSTAS]”, the results for the “folding stability dG unfold” value in series [1], in series [2] and in series [3] were 0.634 ± 0.057 kcal/mol, 0.0702 ± 0.097 kcal/mol and 0.395 ± 0.051 kcal/mol, respectively.
The corresponding values for “SMTVSNPRGKTVTVTVTVTVDPNKKSVTVPVTIRTAGEELTFTFTVPKGVNKPVTFSLTVPLPPGSSVISSA [r9_973_JUSTAS]” are 3 ± 0.093 kcal/mol, 4.02 ± 0.059 kcal/mol and 3.63 ± 0.089 kcal/mol.
The like results for “SMTVVIDIPPEVPVPGSGSVRPVPVEEVLKRVEEAMAKGKKVVVTGRDPKHPLVQEVAARLEELGVEVVGSA [r9_468_JUSTAS]” were, in that order, 0.342 ± 0.029 kcal/mol, 0.71 ± 0.016 kcal/mol and 0.59 ± 0.054 kcal/mol.
For “SMVEKLPDGTTVIKGELPLDVSIEDVLAKLPDLKLASRTSETDPATGKRYYTFIVKPDGTVDVTSEPKLLSA [r9_238_JUSTAS]”, the “folding stability dG unfold” value in series [1] amounted to 0.645 ± 0.027 kcal/mol; in series [2] it was 1.21 ± 0.091 kcal/mol; in series [3], 0.957 ± 0.045 kcal/mol.
On to “SMVFTLPGGIEIKVEPEEDSYRFVIELPSGERLEVPVPPENLEEFIRELIRKALEIANPNITEEEIEKLASA [r9_634_TrMRF]”, for which the “folding stability dG unfold” value in series [1] was 3.22 ± 0.26 kcal/mol; in series [2], 4.02 ± 0.09 kcal/mol; in series [3], 3.59 ± 0.29 kcal/mol.
